Target: Isu1 (mature, residues 36-165) with the C-terminal His tag (S. cerevisiae) (UniProt Q03020)
Experiment: native MS

stoichiometry N: 1
B1: Hsc20 without tag, co-expressed with Isu1 and Ssq1* (natural protein)
chain: TSTFYELFPKTFPKKLPIWTIDQSRLRKEYRQLQAQHHPDMAQQGSEQSSTLNQAYHTLKDPLRRSQYMLKLLRNIDLTQEQTSNEVTTSDPQLLLKVLDIHDELSQMDDEAGVKLLEKQNKERIQDIEAQLGQCYNDKDYAAAVKLTVELKYWYNLAKAFKDWAPGKQLEMNH

Reference: publication PMC11457148
